# Test results published in publication PMC5814352 (Nature, 2018).
# B1: human DNMT3A (R836A) C-terminal domain (residues 628-912) (domain or fragment, UniProt Q9Y6K1-1 628-912, looked up)
# chain: AEKRKPIRVLSLFDGIATGLLVLKDLGIQVDRYIASEVCEDSITVGMVRHQGKIMYVGDVRSVTQKHIQEWGPFDLVIGGSPCNDLSIVNPARKGLYEGTGRLFFEFYRLLHDARPKEGDDRPFFWLFENVVAMGVSDKRDISRFLESNPVMIDAKEVSAAHRARYFWGNLPGMNRPLASTVNDKLELQECLEHGRIAKFSKVRTITTASNSIKQGKDQHFPVFMNEKEDILWCTEMERVFGFPVHYTDVSNMSRLARQRLLGRSWSVPVIRHLFAPLKEYFACV
# modifications: covalently bound to Zebularine of the 25-mer DNA
# Target: the molecule itself
# Experiment: crystal structure
protein,measurement,value
B1,binding result,binds
